15 molecules from patent US20220144956A1 (published 2022) can be followed below.

The chains are these.
B1: H1.44 L1 XENP34500 (antibody, V domains shown)
VH: QLQVQESGPGLVKPSETLSLTCTVSGGSISNSYFSWGWIRQPPGKGLEWIGVFYYGEKTYYNPSLKSRATISIDTSKSQFSLKLSSVTAADTAVYYCPRGPTMIRGVIDSWGQGTLVTVSS
VL: EIVLTQSPATLSLSPGERATLSCRASQSVRSYLAWYQQKPGQAPRLLIYDASNRATGIPARFSGSGSGTDFTLTISSLEPEDFAVYYCQQRSNWPPTFGQGTKVEIK
B2: H1.69 L1 XENP34525 (antibody, V domains shown)
VH: QLQVQESGPGLVKPSETLSLTCTVSGGSISNSYFSWGWIRQPPGKGLEWIGSFYYGEKTYYNPSLQSRATISIDTSKSQFSLKLSSVTAADTAVYYCPRGPTMIRGVIDSWGQGTLVTVSS
VL: EIVLTQSPATLSLSPGERATLSCRASQSVRSYLAWYQQKPGQAPRLLIYDASNRATGIPARFSGSGSGTDFTLTISSLEPEDFAVYYCQQRSNWPPTFGQGTKVEIK
B3: H1.39 L1 XENP34495 (antibody, V domains shown)
VH: QLQVQESGPGLVKPSETLSLTCTVSGGSISNSYFSWGWIRQHPGKGLEWIGSFYYGEKTYYNPSLKSRATISIDTSKSQFSLKLSSVTAADTAVYYCPRGPTMIRGVIDSWGQGTLVTVSS
VL: EIVLTQSPATLSLSPGERATLSCRASQSVRSYLAWYQQKPGQAPRLLIYDASNRATGIPARFSGSGSGTDFTLTISSLEPEDFAVYYCQQRSNWPPTFGQGTKVEIK
B4: H1.68 L1 XENP34524 (antibody, V domains shown)
VH: QLQVQESGPGLVKPSETLSLTCTVSGGSISNSYFSWGWIRQPPGKGLEWIGSFYYGEKTYYNPSLESRATISIDTSKSQFSLKLSSVTAADTAVYYCPRGPTMIRGVIDSWGQGTLVTVSS
VL: EIVLTQSPATLSLSPGERATLSCRASQSVRSYLAWYQQKPGQAPRLLIYDASNRATGIPARFSGSGSGTDFTLTISSLEPEDFAVYYCQQRSNWPPTFGQGTKVEIK
B5: H1.66 L1 XENP34522 (antibody, V domains shown)
VH: QLQVQESGPGLVKPSETLSLTCTVSGGSISNSYFSWGWIRQPPGKGLEWIGSFYYGEKTYYAPSLKSRATISIDTSKSQFSLKLSSVTAADTAVYYCPRGPTMIRGVIDSWGQGTLVTVSS
VL: EIVLTQSPATLSLSPGERATLSCRASQSVRSYLAWYQQKPGQAPRLLIYDASNRATGIPARFSGSGSGTDFTLTISSLEPEDFAVYYCQQRSNWPPTFGQGTKVEIK
B6: H1.53 L1 XENP34509 (antibody, V domains shown)
VH: QLQVQESGPGLVKPSETLSLTCTVSGGSISNSYFSWGWIRQPPGKGLEWIGSFYHGEKTYYNPSLKSRATISIDTSKSQFSLKLSSVTAADTAVYYCPRGPTMIRGVIDSWGQGTLVTVSS
VL: EIVLTQSPATLSLSPGERATLSCRASQSVRSYLAWYQQKPGQAPRLLIYDASNRATGIPARFSGSGSGTDFTLTISSLEPEDFAVYYCQQRSNWPPTFGQGTKVEIK
B7: H1.41 L1 XENP34497 (antibody, V domains shown)
VH: QLQVQESGPGLVKPSETLSLTCTVSGGSISNSYFSWGWIRQPPGKGLEWIGEFYYGEKTYYNPSLKSRATISIDTSKSQFSLKLSSVTAADTAVYYCPRGPTMIRGVIDSWGQGTLVTVSS
VL: EIVLTQSPATLSLSPGERATLSCRASQSVRSYLAWYQQKPGQAPRLLIYDASNRATGIPARFSGSGSGTDFTLTISSLEPEDFAVYYCQQRSNWPPTFGQGTKVEIK
B8: H1.45 L1 XENP34501 (antibody, V domains shown)
VH: QLQVQESGPGLVKPSETLSLTCTVSGGSISNSYFSWGWIRQPPGKGLEWIGYFYYGEKTYYNPSLKSRATISIDTSKSQFSLKLSSVTAADTAVYYCPRGPTMIRGVIDSWGQGTLVTVSS
VL: EIVLTQSPATLSLSPGERATLSCRASQSVRSYLAWYQQKPGQAPRLLIYDASNRATGIPARFSGSGSGTDFTLTISSLEPEDFAVYYCQQRSNWPPTFGQGTKVEIK
B9: H1.46 L1 XENP34502 (antibody, V domains shown)
VH: QLQVQESGPGLVKPSETLSLTCTVSGGSISNSYFSWGWIRQPPGKGLEWIGSIYYGEKTYYNPSLKSRATISIDTSKSQFSLKLSSVTAADTAVYYCPRGPTMIRGVIDSWGQGTLVTVSS
VL: EIVLTQSPATLSLSPGERATLSCRASQSVRSYLAWYQQKPGQAPRLLIYDASNRATGIPARFSGSGSGTDFTLTISSLEPEDFAVYYCQQRSNWPPTFGQGTKVEIK
B10: H1.63 L1 XENP34519 (antibody, V domains shown)
VH: QLQVQESGPGLVKPSETLSLTCTVSGGSISNSYFSWGWIRQPPGKGLEWIGSFYYGEKTHYNPSLKSRATISIDTSKSQFSLKLSSVTAADTAVYYCPRGPTMIRGVIDSWGQGTLVTVSS
VL: EIVLTQSPATLSLSPGERATLSCRASQSVRSYLAWYQQKPGQAPRLLIYDASNRATGIPARFSGSGSGTDFTLTISSLEPEDFAVYYCQQRSNWPPTFGQGTKVEIK
B11: H1.49 L1 XENP34505 (antibody, V domains shown)
VH: QLQVQESGPGLVKPSETLSLTCTVSGGSISNSYFSWGWIRQPPGKGLEWIGSFHYGEKTYYNPSLKSRATISIDTSKSQFSLKLSSVTAADTAVYYCPRGPTMIRGVIDSWGQGTLVTVSS
VL: EIVLTQSPATLSLSPGERATLSCRASQSVRSYLAWYQQKPGQAPRLLIYDASNRATGIPARFSGSGSGTDFTLTISSLEPEDFAVYYCQQRSNWPPTFGQGTKVEIK
B12: H1.57 L1 XENP34513 (antibody, V domains shown)
VH: QLQVQESGPGLVKPSETLSLTCTVSGGSISNSYFSWGWIRQPPGKGLEWIGSFYYGSKTYYNPSLKSRATISIDTSKSQFSLKLSSVTAADTAVYYCPRGPTMIRGVIDSWGQGTLVTVSS
VL: EIVLTQSPATLSLSPGERATLSCRASQSVRSYLAWYQQKPGQAPRLLIYDASNRATGIPARFSGSGSGTDFTLTISSLEPEDFAVYYCQQRSNWPPTFGQGTKVEIK
B13: H1.76 L1 XENP34532 (antibody, V domains shown)
VH: QLQVQESGPGLVKPSETLSLTCTVSGGSISNSYFSWGWIRQPPGKGLEWIGSFYYGEKTYYNPSLKSRATISIDTSKSQFSLKLSSVTAEDTAVYYCPRGPTMIRGVIDSWGQGTLVTVSS
VL: EIVLTQSPATLSLSPGERATLSCRASQSVRSYLAWYQQKPGQAPRLLIYDASNRATGIPARFSGSGSGTDFTLTISSLEPEDFAVYYCQQRSNWPPTFGQGTKVEIK
B14: H1.40 L1 XENP34496 (antibody, V domains shown)
VH: QLQVQESGPGLVKPSETLSLTCTVSGGSISNSYFSWGWIRQPPGKGLEWVGSFYYGEKTYYNPSLKSRATISIDTSKSQFSLKLSSVTAADTAVYYCPRGPTMIRGVIDSWGQGTLVTVSS
VL: EIVLTQSPATLSLSPGERATLSCRASQSVRSYLAWYQQKPGQAPRLLIYDASNRATGIPARFSGSGSGTDFTLTISSLEPEDFAVYYCQQRSNWPPTFGQGTKVEIK
B15: H1.70 L1 XENP34526 (antibody, V domains shown)
VH: QLQVQESGPGLVKPSETLSLTCTVSGGSISNSYFSWGWIRQPPGKGLEWIGSFYYGEKTYYNPSLKGRATISIDTSKSQFSLKLSSVTAADTAVYYCPRGPTMIRGVIDSWGQGTLVTVSS
VL: EIVLTQSPATLSLSPGERATLSCRASQSVRSYLAWYQQKPGQAPRLLIYDASNRATGIPARFSGSGSGTDFTLTISSLEPEDFAVYYCQQRSNWPPTFGQGTKVEIK

Broadly, the Kd is a measure of binding affinity in units of concentration. A low value points to a tighter complex.

The target of this assay is human TGFßRII (antigen of the Octet experiments) (human, UniProt P37173 23-166). In words: BLI (Octet). Background: In BLI a coated tip is dipped into the sample, and binding shifts an interference pattern.
Sequence of human TGFßRII (antigen of the Octet experiments) (P37173 23-166): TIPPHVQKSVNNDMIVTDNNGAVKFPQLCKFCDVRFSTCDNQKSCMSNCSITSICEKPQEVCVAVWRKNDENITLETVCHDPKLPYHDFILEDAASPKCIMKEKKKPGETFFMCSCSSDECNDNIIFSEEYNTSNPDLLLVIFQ
On to B1, for which binding was put at a Kd of 2.95 nM. This lies in the single-digit nanomolar range.

Molecule B2 displayed a Kd of 1.41 nM.

For the molecule B3, the Kd was 0.425 nM.

Molecule B4 displayed a Kd of 1.5 nM.

B5 displayed a Kd of 0.623 nM.

B6 displayed a Kd of 0.366 nM.

With B7, binding was put at a Kd of 18.9 nM.

B8 displayed a Kd of 1.01 nM.

B9 came in with a Kd of 3.2 nM.

With B10, binding was characterised by a dissociation constant (Kd) of 5.28 nM.

Consider B11, for which the Kd is 0.338 nM.

In turn, B12 came in with a Kd of 7.71 nM.

On to B13, for which binding was put at a Kd of 0.829 nM. Compared with the last molecule, the Kd is about 9.3-fold lower.

Take B14: the affinity, expressed as Kd, was 0.338 nM. This Kd is about 2.5-fold lower than that of the molecule before.

With B15, the affinity, expressed as Kd, was 0.789 nM.
